biological target: F-actin (filamentous actin, purified from chicken breast) (Gallus gallus (chicken)) (UniProt P68139); assay: co-sedimentation

| Substance | Kd [µM] |
| --- | --- |
| Human UTRN-ABD (utrophin actin binding domain, amino acids 1-261) (from UniProt P46939 1-261) (domain or fragment) | 1.8 |
| UTRN-ABD V87D (from UniProt P46939 1-261) (domain or fragment) | > 100 |

Now from value to substance:

| Kd [µM] | Substance |
| --- | --- |
| 2.8 | UTRN-ABD H29A (from UniProt P46939 1-261) (domain or fragment) |
| 55 | UTRN-ABD N109A (from UniProt P46939 1-261) (domain or fragment) |
| 38 | UTRN-ABD I22D (from UniProt P46939 1-261) (domain or fragment) |

Reference: article doi:10.1101/846337
